The assay has as its target Map205 (UniProt P23226). The assay can be described thus: PrA-Map205 affinity purification, GFP blot. The conditions noted are these: reference: Polo WT-GFP with Aurora B–Myc; sites T182.

“Polo (from UniProt P52304) Polo T182A-GFP with Aurora B–Myc”: the “binding against the reference” value is “stronger”.

For the origin of these results see PMC4210448.
